Reference: patent US20230203146A1 (Boehringer Ingelheim, published 2023)

T1: recombinant rat Ang2-FLD (rat, UniProt O35462 275-496, limits assumed)
T1 construct: domain: FLD
T1 sequence (looked up): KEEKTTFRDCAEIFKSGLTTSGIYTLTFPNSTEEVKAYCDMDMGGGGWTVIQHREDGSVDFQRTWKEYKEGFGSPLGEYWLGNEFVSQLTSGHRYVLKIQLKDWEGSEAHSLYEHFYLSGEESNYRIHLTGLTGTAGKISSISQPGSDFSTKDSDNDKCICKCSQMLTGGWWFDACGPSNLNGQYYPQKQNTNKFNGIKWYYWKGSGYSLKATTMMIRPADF

T2: recombinant human Ang2-FLD (human, UniProt O15123 275-496, limits assumed)
T2 construct: domain: FLD
T2 sequence (looked up): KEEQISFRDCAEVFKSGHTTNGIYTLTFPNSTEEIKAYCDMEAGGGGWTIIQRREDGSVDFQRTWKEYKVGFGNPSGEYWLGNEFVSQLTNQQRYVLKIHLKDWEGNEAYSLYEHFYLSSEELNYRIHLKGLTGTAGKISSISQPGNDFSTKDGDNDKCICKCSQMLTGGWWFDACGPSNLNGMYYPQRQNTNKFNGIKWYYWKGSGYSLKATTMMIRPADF

T3: recombinant mouse Ang2-FLD (mouse, UniProt O35608 275-496, limits assumed)
T3 construct: domain: FLD
T3 sequence (looked up): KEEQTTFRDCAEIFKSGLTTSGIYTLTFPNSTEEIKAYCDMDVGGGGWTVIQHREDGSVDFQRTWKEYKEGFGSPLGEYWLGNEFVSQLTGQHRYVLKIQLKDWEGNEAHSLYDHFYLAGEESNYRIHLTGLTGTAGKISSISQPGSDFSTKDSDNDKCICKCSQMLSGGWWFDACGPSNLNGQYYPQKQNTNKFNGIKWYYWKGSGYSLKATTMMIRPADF

T4: recombinant cynomolgus Ang2-FLD (cynomolgus, UniProt A0A2K5VNX6 275-496)
T4 construct: domain: FLD; also called cyno Ang2-FLD
T4 sequence: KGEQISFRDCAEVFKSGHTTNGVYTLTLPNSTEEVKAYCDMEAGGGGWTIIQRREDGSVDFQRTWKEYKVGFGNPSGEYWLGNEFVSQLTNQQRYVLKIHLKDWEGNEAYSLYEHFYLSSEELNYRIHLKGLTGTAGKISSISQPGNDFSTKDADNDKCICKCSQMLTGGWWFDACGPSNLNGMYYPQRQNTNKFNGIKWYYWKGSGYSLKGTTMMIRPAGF

T5: FLAG-tagged mouse Ang2 (mouse, UniProt O35608 19-496)
T5 construct: N-terminally FLAG-tagged, conditioned medium of HEK293T cells; also called mAng2; FLAG-mAng2
T5 sequence: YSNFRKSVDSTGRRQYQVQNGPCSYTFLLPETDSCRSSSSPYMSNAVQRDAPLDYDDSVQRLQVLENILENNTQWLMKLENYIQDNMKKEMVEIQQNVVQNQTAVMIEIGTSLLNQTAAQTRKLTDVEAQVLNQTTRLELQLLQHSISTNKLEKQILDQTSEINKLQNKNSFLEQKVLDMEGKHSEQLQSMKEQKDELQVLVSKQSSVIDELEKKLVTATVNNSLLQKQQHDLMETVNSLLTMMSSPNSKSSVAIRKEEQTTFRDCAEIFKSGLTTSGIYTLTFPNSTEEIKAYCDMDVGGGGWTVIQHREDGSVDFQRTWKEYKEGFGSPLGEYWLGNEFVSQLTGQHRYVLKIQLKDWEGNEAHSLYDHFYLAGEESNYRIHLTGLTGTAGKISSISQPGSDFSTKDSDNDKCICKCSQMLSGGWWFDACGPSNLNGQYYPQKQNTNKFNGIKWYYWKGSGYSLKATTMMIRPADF

T6: FLAG-tagged cynomolgus Ang2 (cynomolgus, UniProt O15123 19-496 (human entry), limits assumed)
T6 construct: N-terminally FLAG-tagged, conditioned medium of HEK293T cells; also called cAng2; FLAG-cAng2
T6 chain: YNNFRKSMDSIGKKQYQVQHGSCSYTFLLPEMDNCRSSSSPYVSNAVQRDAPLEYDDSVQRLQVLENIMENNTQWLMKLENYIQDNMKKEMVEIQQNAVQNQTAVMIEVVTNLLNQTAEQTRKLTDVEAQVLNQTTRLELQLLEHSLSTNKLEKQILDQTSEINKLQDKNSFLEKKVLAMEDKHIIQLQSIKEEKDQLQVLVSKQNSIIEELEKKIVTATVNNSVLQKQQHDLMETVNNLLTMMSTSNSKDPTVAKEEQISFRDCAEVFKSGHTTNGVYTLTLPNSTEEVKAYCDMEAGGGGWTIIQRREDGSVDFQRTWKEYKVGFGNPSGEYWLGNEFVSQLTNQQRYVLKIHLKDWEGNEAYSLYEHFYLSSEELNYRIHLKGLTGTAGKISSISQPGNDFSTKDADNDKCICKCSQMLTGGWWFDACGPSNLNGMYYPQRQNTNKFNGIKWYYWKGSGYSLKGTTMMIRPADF


Key:
[1] = target: T1, recombinant rat Ang2-FLD; assay: SPR (Biacore T100), VHH immobilized, Ang2-FLD injected
[2] = target: T2, recombinant human Ang2-FLD; assay: as above
[3] = target: T3, recombinant mouse Ang2-FLD; assay: as above
[4] = target: T4, recombinant cynomolgus Ang2-FLD; assay: as above
[5] = target: T5, FLAG-tagged mouse Ang2; assay: competition ELISA: FLAG-mAng2 binding to coated mTie2-Fc
Protocol: (§1) In brief, 2 μg/mL of recombinant mouse Tie2-Fc or cyno Tie2-Fc is coated overnight at 4° C. in a 96-well MaxiSorp plate (Nunc, Wiesbaden, Germany). Coated wells are blocked with a 1% casein solution.

[6] = target: T6, FLAG-tagged cynomolgus Ang2; assay: competition ELISA: FLAG-cAng2 binding to coated cTie2-Fc
Protocol: as §1

Binder | Kd [1] [pM] | koff [1] [s⁻¹] | kon [1] [M⁻¹ s⁻¹] | Kd [2] [pM] | koff [2] [s⁻¹] | kon [2] [M⁻¹ s⁻¹] | Kd [3] [pM] | koff [3] [s⁻¹] | kon [3] [M⁻¹ s⁻¹] | Kd [4] [pM] | koff [4] [s⁻¹] | kon [4] [M⁻¹ s⁻¹] | IC50 [5] [pM] | IC50 [6] [pM]
VHH 00956 (VHH, not shown: small tags and cut ends) VHH: EVQLVESGGGLVQPGGSLRLSCAASGFTLDDYAIGWFRQAPGKEREGVSAIRSSGGSTYYADSVKGRFTISSDNSKNTVYLQMNSLRPEDTAVYYCAAVPAGRLRFGEQWYPLYEYDAWGQGTLVTVSS | 13000 | 0.0052 | 420000 | 1200 | 0.0015 | 1.3e+06 | 4000 | 0.0039 | 980000 | 720 | 0.0013 | 1.7e+06 | 2200 | 830
VHH 00938 (VHH, not shown: small tags and cut ends, Cycle 3 variant of 28D10 on the 00908 backbone) VHH: EVQLVESGGGLVQPGGSLRLSCAVSGITLDDYAIGWFRQAPGKEREGVSAIRSSGGSTYYADSVKGRFTISSDNSKNTVYLQMNSLRPEDTAVYYCAAVPAGRLRYGEQWYPIYEYDAWGQGTLVTVSS | 140 | 7.2e-05 | 510000 | 17 | 2.8e-05 | 1.6e+06 | 50 | 5.6e-05 | 1.1e+06 | 8.7 | 2.2e-05 | 2.6e+06 | 55 | 91
